In US20240207463A1, “RADIOACTIVE COMPLEX OF ANTI-EGFR ANTIBODY, AND RADIOPHARMACEUTICAL” (NIHON MEDI-PHYSICS CO., LTD., priority 2021, published 2024):

Key:
[1] = tested on: tumor derived from COLO205 cells; test: Accumulation in tumor, PET imaging in COLO205 tumor-bearing mice; type: in vivo, mouse
Method: COLO205 cells of EGFR high expression human colorectal cancer-derived cell line purchased from ATCC were suspended in DMEM medium and administered subcutaneously to the flanks of 5-week-old female BALB/c nu/nu (Charles River Laboratories Japan, Inc.) at 5×10^6 cells to prepare tumor-bearing mice. The tumor volume was allowed to grow to about 100 to 250 mm^3, and the radioconjugate produced as described in Example 7 was administered at a dose of about 6 MBq/mouse (each n=3) into the tail vein. After 72 hr and 120 hr from the administration, images were taken using a small animal PET imaging device under conditions similar to those in Evaluation 2.
The arrow in the image indicates a tumor derived from COLO205 cells used for tumor-bearing. When VOI was set for the tumor and muscle (femoral muscle) in each imaged mouse and the SUV (Standard Uptake Value) was calculated, the value was 3.18±0.72 for tumor and 0.48±0.02 for muscle at 72 hr after administration and 4.38±0.96 for tumor and 0.48±0.05 for muscle at 120 hr after administration. Using the values, the radioactivity accumulation ratio of tumor to muscle was calculated. As a result, the ratio was 6.67±1.52 at 72 hr after administration and 9.19±2.02 at 120 hr after administration, and a higher level of radioactivity was accumulated in the tumor as compared with other organs and EGFR positive tumor could be depicted.

[2] = tested on: SW48 cells and COLO205 cells; test: Apoptosis induction, Caspase-Glo 3/7 Assay; type: cell-based, human; details: 72 hours, both cells
Method: In addition, unlabeled panitumumab was added to an antibody concentration the same as that of the group at each radioactivity concentration, and the cells were cultured. After 72 hours from the sample addition, an apoptosis assay kit (Caspase-Glo (registered trademark) 3/7 Assay, manufactured by Promega) was added, and Caspase-3/7 activity was detected using a microplate reader.

[3] = tested on: COLO205 cells, HCT-116 cells, SW48 cells, MIAPaCa-2 cells, NCI-H358 cells; test: Cytotoxic effect on cultured cells, overall statement; type: cell-based, human; details: 120 hours; up to maximum concentration added (antibody concentration 156 nM)
Method: In addition, unlabeled panitumumab was added to an antibody concentration the same as that of the sample at each radioactivity concentration, and the cells were cultured. After 120 hours from the sample addition, CellTiter-Glo (registered trademark) 2.0 Cell Viability Assay (manufactured by Promega) was added to the medium, chemiluminescence was detected using a microplate reader (SpectraMax i3x, manufactured by Molecular Devices, LLC), and the number of viable cells was calculated. The ratio of the number of viable cells under conditions where no antibody was added to the calculated number of viable cells was taken, and the cytotoxic effect was evaluated. Furthermore, the obtained results were fitted by a […] regression method using GraphPad Prism 7 (manufactured by GraphPad Software), and EC50 was calculated.

[4] = Hepatotoxicity and nephrotoxicity markers (AST, ALT, BUN) in COLO205 tumor-bearing mice; details: final day of observation
Method: As a comparison group, a group (oxaliplatin administration group) was set by administering 33 μL of oxaliplatin into the tail vein at a dose of 5 mg/mL 3 times every other week. […] Each group contained 6 mice, and observation of general condition and measurement of the body weight and tumor volume were performed until the end of the observation period. In the Figure, the vertical axis indicates mean tumor volume of each group, and the horizontal axis indicates the number of days elapsed since administration of each medicament. […] On the final day of observation, the mice were autopsied, and the blood was collected. The collected blood was analyzed by a dry chemistry analyzer (SPOTCHEM D-02, manufactured by ARKRAY, Inc.) by measuring aspartate aminotransferase (AST), alanine aminotransferase (ALT), and blood urea nitrogen (BUN) in plasma by using SPOTCHEM D Total-A2 (manufactured by ARKRAY, Inc.), and hepatotoxicity and nephrotoxicity were evaluated.

Example 7: Complex with panitumumab using 89Zr-labeled DOTAGA-DBCO
SUV (Standard Uptake Value), muscle (femoral muscle) ([1]; 72 hr after administration): 0.48±0.02 | SUV (Standard Uptake Value), muscle (femoral muscle) ([1]; 120 hr after administration): 0.48±0.05 | SUV (Standard Uptake Value), tumor ([1]; 120 hr after administration): 4.38±0.96 | SUV (Standard Uptake Value), tumor ([1]; about 6 MBq/mouse tail vein, 72 hr after administration): 3.18±0.72

panitumumab [unlabeled panitumumab, reference compound]
apoptosis induction (Caspase-3/7 activity) [2]: apoptosis induction was not confirmed | cytotoxic effect [3]: no cytotoxic effect was confirmed

O=C1[O][Pt]2([NH][C@@H]3CCCC[C@H]3[NH]2)[O]C1=O [oxaliplatin, reference compound]
hepatotoxicity and nephrotoxicity (AST, ALT, BUN in plasma) [4]: no hepatotoxicity or nephrotoxicity was confirmed
